The results in this text go back to the RNAGym collection of RNA variant scans (doi:10.1073/pnas.2313332121).

The labels stand for the following.
B1: TPR t1 (parent)
chain: GACCAAUCUGCCCUCAGAGCUCGAGAACAUCUUCGGAUGCAGAGGAGGCAGGCUUCGGUGGCGCGAUAGCGCCAACGUCCUCAACCUCCAAUGCAUCCCACCACAUGAUGAUGCCUGAAGAGCCUUGGUUUUUUG

In the series the parent is B1. As to the kind of experiment: polymerase ribozyme fitness, log enrichment relative to wild type (log ratio); higher = more active; in vitro selection for triplet polymerase activity. The gist of the method:
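A single round of triplicate in vitro selection, including frozen incubation at −7 °C, was applied to PCR-built, transcribed mutant libraries of each subunit of a heterodimeric triplet polymerase ribozyme. Illumina sequencing of input and output libraries retained genotypes with ≥10 input reads and ≥1 read per output. Fitness is the base-2 logarithm of genotype enrichment divided by wild-type enrichment, from inverse-variance-weighted replicate averages.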
As for C28G U38C G77C A84U U92C G113U U129G, the “polymerase ribozyme fitness (log ratio)” value is -5.83. The result for G71C G93A C102A reads -5.09; that for G35U G65U A121G, -5.82; that for C40U C79A C101U, -2.1. Take A18U G93C C94U: the “polymerase ribozyme fitness (log ratio)” value is -3.75. The result for G44A G60C C114A reads -2.55; that for G23A, -4.43.

For the variant C72G G93U, the “polymerase ribozyme fitness (log ratio)” value was -1.16. As to A68G C85A, the “polymerase ribozyme fitness (log ratio)” value was -4.94.

As for C76G A119U, the “polymerase ribozyme fitness (log ratio)” value is -1.37.

As for C34U C72U, the “polymerase ribozyme fitness (log ratio)” value is -4.07. The result for G71A A111C A118U reads -0.257; that for C49U G58U C62G, -1.16; that for A27U C72U A83U, -3.67. Take G17A U132A: the “polymerase ribozyme fitness (log ratio)” value was -2.35.

Regarding C98G G135U, the “polymerase ribozyme fitness (log ratio)” value is -6.54.

A75U C79G C88U U130G: the “polymerase ribozyme fitness (log ratio)” value was -2.82. The result for G39A G71C G93C C94U reads -2.14; that for C56U G117C, -3.64. For the variant C40A G61A C80U, the “polymerase ribozyme fitness (log ratio)” value was -2.91.

Consider C11A C53U, for which the “polymerase ribozyme fitness (log ratio)” value is -1.77. For U9G C13A C28U G47U C86G, the “polymerase ribozyme fitness (log ratio)” value was -1.92.

G61A C82G: the “polymerase ribozyme fitness (log ratio)” value was -1.29. On to A5U G69U, for which the “polymerase ribozyme fitness (log ratio)” value is 0.406. In the case of A5U U9A U32C A37U C49U G69U G93A, the “polymerase ribozyme fitness (log ratio)” value is -1.24. For the variant G71C U81A U109A, the “polymerase ribozyme fitness (log ratio)” value was -6.73. The result for C3G G42A C56G U106C G113U A121U reads -4.31; that for C20U C76G C89U C104A C115U, -5.63. The result for A16U A95C reads -2.59; that for A95U C114G, -2.97. C40U G48U C79A C124U: the “polymerase ribozyme fitness (log ratio)” value is -3.57. With G44C G47U G48A, the “polymerase ribozyme fitness (log ratio)” value was -1.43. As to U81A C86A, the “polymerase ribozyme fitness (log ratio)” value is -2.24.

In the case of G39U C70U G117C G128A, the “polymerase ribozyme fitness (log ratio)” value was -5.92. As for G36C G51A, the “polymerase ribozyme fitness (log ratio)” value is -3.99.

In the case of G25A C80A U92A U112A, the “polymerase ribozyme fitness (log ratio)” value was -6.66. The result for C4U A6C G48U G69U C86U C88A G113C reads -3.07. With G52U U59C C85U C124U, the “polymerase ribozyme fitness (log ratio)” value was -1.1. The result for G10A G17A C82A reads -3.46; that for G77A G110A, -1.28. The figure for A43U U81A C85G is -3.37. The figure for C89A G135U is -2.26; for A16U U112A it is 0.0459; for A37G A43U G47U C101G it is -4.64. As to A46U G110U, the “polymerase ribozyme fitness (log ratio)” value was -2.33. With G10C C49A G71U, the “polymerase ribozyme fitness (log ratio)” value was -1.17. The result for G47U C97A reads -5.54.

Take A5U A6U U7G C8U G36A A121C: the “polymerase ribozyme fitness (log ratio)” value came out at 0.985. Take U7A C8A C11G G47U G57U C85A: the “polymerase ribozyme fitness (log ratio)” value was -2.04. As to U7G G57A C94A C99U A121C, the “polymerase ribozyme fitness (log ratio)” value was -5.61.

As to U21C A46G C53A C98U, the “polymerase ribozyme fitness (log ratio)” value was -3.28.

For the variant A105C U116C, the “polymerase ribozyme fitness (log ratio)” value is -4.81.

As for C12A C56U, the “polymerase ribozyme fitness (log ratio)” value was 0.0114. The result for C12A C56A reads -1.02. The result for C15U G60C G117A reads 0.583; that for C11G G45A C53G G57U C104G C114U, -6.51.

Regarding C31U A37G, the “polymerase ribozyme fitness (log ratio)” value was -3.78. The figure for C53A C62A U125C is -6.14; for C49U G57A U96A it is -3.31; for C13G U96C C101A it is -3.35. In the case of A18U C28A C85G A111U, the “polymerase ribozyme fitness (log ratio)” value was -4.7.

Take A37U U59A G61C G93U A95G U130G: the “polymerase ribozyme fitness (log ratio)” value was -5.82.

Consider U78C U81A A83G, for which the “polymerase ribozyme fitness (log ratio)” value is -0.944.

For the variant A2G C13A A43U G51U C64U A83U A84G, the “polymerase ribozyme fitness (log ratio)” value is -6.26. Regarding C3A G42U A46U C73A U112A, the “polymerase ribozyme fitness (log ratio)” value is -2.77. Turning to C86A U87A, the “polymerase ribozyme fitness (log ratio)” value is -2.7.

In the case of U14C A90C, the “polymerase ribozyme fitness (log ratio)” value was -3.39.

Take G39A A119U: the “polymerase ribozyme fitness (log ratio)” value was -0.287.

Take G61U A75C: the “polymerase ribozyme fitness (log ratio)” value was -0.117. The result for U9A G117C reads -1.79.

For the variant C97U A103U, the “polymerase ribozyme fitness (log ratio)” value is -5.3. In the case of G69C C104U, the “polymerase ribozyme fitness (log ratio)” value is -1.49. The figure for U14A U32C C82A is -3.24. As for G61C A84G U109G, the “polymerase ribozyme fitness (log ratio)” value is -6.69. The result for A84C C94A reads -1.23; that for G42U G113C, -3.23. The result for C8G C53G A66U G120U reads 1.03. Consider A29G U55C G63U U87A G113C, for which the “polymerase ribozyme fitness (log ratio)” value was -4.13. Consider C11G C12A G36C C72U C73U, for which the “polymerase ribozyme fitness (log ratio)” value is -1.07. The result for A50U G69A C101A U130G reads -6.9.

Turning to A83G C86G A91C C94U U130A, the “polymerase ribozyme fitness (log ratio)” value was -3.59. As for C56A G117A, the “polymerase ribozyme fitness (log ratio)” value was -2.11. The result for U55G C70U C89A C104U reads -2.38.

As for A6U G52A U116C, the “polymerase ribozyme fitness (log ratio)” value was -1.36. Take C8U G42U C73G: the “polymerase ribozyme fitness (log ratio)” value was -2.13.

With A68G C72G A83U C86A C104U U112G U116C A119C, the “polymerase ribozyme fitness (log ratio)” value was -6.61. The figure for A43U C85G A95C U112C is -2.22; for A18U G44A it is -2.99; for C11G U78C C82U G117A it is -0.181.

As to G58A G61U, the “polymerase ribozyme fitness (log ratio)” value is -0.422. In the case of C49G G69U C94U C114A G120A, the “polymerase ribozyme fitness (log ratio)” value was -1.33.

On to C20U G36A G122A G127C G135U, for which the “polymerase ribozyme fitness (log ratio)” value is -5.15. C62G C85A C102U A121U C124U: the “polymerase ribozyme fitness (log ratio)” value was -4.13.

Take U38G C64U A66C A90U A91C U132A: the “polymerase ribozyme fitness (log ratio)” value is -3.61. Consider C82A U112A, for which the “polymerase ribozyme fitness (log ratio)” value came out at 1.06. Consider C40A G48A G61A U92A C94U A105G, for which the “polymerase ribozyme fitness (log ratio)” value is -7.09. As for C22A G44U C62U U112G, the “polymerase ribozyme fitness (log ratio)” value is -5.2. Take G39A U92A: the “polymerase ribozyme fitness (log ratio)” value was -3.56.

G71U G77C C86U: the “polymerase ribozyme fitness (log ratio)” value is -2.09.

With G39C G45C C64U C82A C85G, the “polymerase ribozyme fitness (log ratio)” value was -5.8. Take G71U C98U: the “polymerase ribozyme fitness (log ratio)” value is -2.33.

U125A U126G: the “polymerase ribozyme fitness (log ratio)” value was -1.8. The result for A43C C56A reads -2.98; that for U38G U133A, -0.846.

With C53U U81C U96A, the “polymerase ribozyme fitness (log ratio)” value was -2.89. On to A29C G63U, for which the “polymerase ribozyme fitness (log ratio)” value was -3.09.

With G71C A100C, the “polymerase ribozyme fitness (log ratio)” value is -2.78. The result for U78C G128A reads -1.95. The result for G52C C56U reads -0.823; that for C99U U133G, -2.59.

Regarding C76G A118G G122U, the “polymerase ribozyme fitness (log ratio)” value is -0.593. The figure for A68G C73U C124U G135U is -3.48; for G48A G93A C114G it is -3.84; for C72U A121G it is 0.744. For U9G G71A, the “polymerase ribozyme fitness (log ratio)” value was -0.592. The figure for A27C C94A is -3.32; for G10C A50C G69U G110A G113C it is -6.42. The figure for U33C G61C is -5.84; for C53G G63A C115G U116A U131G it is -7.22; for G51A G61U it is -2.94. The result for C12G A26C G60U A121U C124A U131G reads -3.72; that for A37U G39U C104U, -1.36. For the variant C3G C40G, the “polymerase ribozyme fitness (log ratio)” value was -1.82. The result for C12G C13U C20A C40A C56U C114U C115A reads -3.7; that for A46G G47U, -1.31. The figure for C3G A18U A43U C114G is -4.61. The figure for U7A G10C C56U C62U C80A A84U G110A C124A U133A is -7.38; for C40U C101U C124A it is 1.16. Turning to G39A G63U C82U U133G, the “polymerase ribozyme fitness (log ratio)” value is -2.41. The figure for G63U G93U C123U is -1.46; for C22U A24G G47A U54A G57A G61A U81A it is -6.51. C70U C82U G93U: the “polymerase ribozyme fitness (log ratio)” value was -1.52.

For the variant C20U C76U G93C, the “polymerase ribozyme fitness (log ratio)” value was -3.66.

A27G C88U C115U: the “polymerase ribozyme fitness (log ratio)” value is -4.85. The result for C4G A6U C72G A84C C115A reads -5.17; that for U21C C72G A90C, -1.98; that for G60A C80A, -3.69. Take C3U C34G G63U: the “polymerase ribozyme fitness (log ratio)” value was -6.26. Take U7G C115U: the “polymerase ribozyme fitness (log ratio)” value was -1.47. The result for G93A C101U A118G reads -0.63; that for C8A A18C, -1.93; that for C64G C72U, -6.14. With C49G C62U G113U, the “polymerase ribozyme fitness (log ratio)” value was -4.48. The result for C13U U55G C72G A100C A111U reads -4.67; that for C22A C70A G122U, -5.4. The figure for G69C G135C is -1.59; for C12A C22U U96A it is -4.9.

As for C15G A27G A95G G110U, the “polymerase ribozyme fitness (log ratio)” value is -5.6. Consider G57U C73G, for which the “polymerase ribozyme fitness (log ratio)” value was -0.228. The figure for A41C G45U G69U C124A U126G is -1.04; for U59G G113A it is -1.96. As to G23A C94A A111G, the “polymerase ribozyme fitness (log ratio)” value is -5.95.

As for C12A C13U A95U A100U G110A, the “polymerase ribozyme fitness (log ratio)” value is -2.79.

Consider C22A C56A U112C, for which the “polymerase ribozyme fitness (log ratio)” value is -2.01.

Turning to C8U G36A, the “polymerase ribozyme fitness (log ratio)” value was -0.0427. The figure for C89G C124U is 0.383; for G120U U133A it is 0.165; for A119U G120U it is -0.548. Regarding U32C C62A, the “polymerase ribozyme fitness (log ratio)” value is -1.92. In the case of C53G C70U C86U A119G, the “polymerase ribozyme fitness (log ratio)” value is -0.0477.

For the variant C53G U116A, the “polymerase ribozyme fitness (log ratio)” value is -2.67. The result for U9G C34U A68G U78C C97U A111U reads -6.62.

On to G25C G36U U87A A108G G120A G135C, for which the “polymerase ribozyme fitness (log ratio)” value was -5.8. As for C49A C80A U112A, the “polymerase ribozyme fitness (log ratio)” value is -5.57. Consider C3U C12A C13A C49U C72G C99U U116C, for which the “polymerase ribozyme fitness (log ratio)” value is -6.31. The figure for C11A C20U is -1.95. The result for A37U G52U C62A reads -2.78.
